Among the targets are HLA-A*02:06; HLA-A*02:03; HLA-A*02:02; HLA-A*31:01; HLA-A*33:01; HLA-A*11:01; HLA-A*03:01; HLA-A*68:01.
What all share (assay): IEDB peptide-MHC binding, purified MHC/competitive/radioactivity; filed as Kd, often an IC50 or EC50 that approximates it; ≥ and ≤ were set here for values at or beyond the usual limits of such assays
[1] abbreviates: source organism: Vaccinia virus WR.
The mark [2] stands for this setting: source organism: Dengue virus 1 Brazil/97-11/1997.
The mark [3] stands for this setting: source organism: Dengue virus 4 Philippines/H241/1956.
Setting [4] is: source organism: SARS coronavirus Tor2.
Where [5] appears, read: source organism: HIV-1 M:B_ARV2/SF2.
The mark [6] stands for this setting: source organism: Dengue virus 2 Jamaica/1409/1983.
Where [7] appears, read: source organism: Dengue virus 3 Martinique/1243/1999.
The mark [8] stands for this setting: source organism: Mammarenavirus machupoense.

These results are taken from the Immune Epitope Database (IEDB).

With AISYCRAFI, the figures for the Kd with HLA-A*02:06 (setting [1]), in the assay with HLA-A*02:03 (setting [1]) and with HLA-A*02:02 (setting [1]) were 146 nM, 149 nM and 17.2 nM, respectively.

For ALYYVHSLL, the Kd stood at 3260 nM with HLA-A*02:06 (setting [1]), 15000 nM with HLA-A*02:03 (setting [1]) and 26.1 nM in the assay with HLA-A*02:02 (setting [1]).

Take AMIHKTYIDV: the dissociation constant (Kd) with HLA-A*02:06 (setting [1]) is 206 nM; with HLA-A*02:03 (setting [1]), 26.7 nM; in the assay with HLA-A*02:02 (setting [1]) it was 335 nM.

On to CTMERTNDLT, for which the Kd is 1010 nM with HLA-A*02:06 (setting [1]), 16100 nM with HLA-A*02:03 (setting [1]) and 4050 nM with HLA-A*02:02 (setting [1]).

For the sequence DTCLLAISA, the Kd with HLA-A*02:06 (setting [1]) is ≥ 25200 nM; with HLA-A*02:03 (setting [1]), 6450 nM; in the assay with HLA-A*02:02 (setting [1]) it was 4330 nM.

Consider DTGKKELAL, for which the Kd with HLA-A*02:06 (setting [1]) was 14200 nM; in the assay with HLA-A*02:03 (setting [1]) it was 156 nM; with HLA-A*02:02 (setting [1]) it was 116 nM.

With DTIESAKTKI, the Kd is ≥ 69800 nM with HLA-A*02:06 (setting [1]), ≥ 50500 nM with HLA-A*02:03 (setting [1]) and ≥ 47900 nM with HLA-A*02:02 (setting [1]).

For DVGCLLTDT, the Kd in the assay with HLA-A*02:06 (setting [1]) was ≥ 77100 nM; in the assay with HLA-A*02:03 (setting [1]) it was ≥ 65400 nM; with HLA-A*02:02 (setting [1]) it was ≥ 77800 nM.

Consider FLSGKGLGKT, for which, in the assay with HLA-A*02:03 (setting [2]), the Kd amounted to 32 nM.

As for GLFDINVIGL, the Kd in the assay with HLA-A*02:06 (setting [1]) was 240 nM; with HLA-A*02:03 (setting [1]), 1.43 nM; with HLA-A*02:02 (setting [1]), 0.163 nM.

For GVSGNIVSSV, the Kd with HLA-A*02:03 (setting [3]) was 30.6 nM.

For HLDGEVLSL, the results for the equilibrium dissociation constant (Kd) in the assay with HLA-A*02:06 (setting [4]), with HLA-A*02:03 (setting [4]) and in the assay with HLA-A*02:02 (setting [4]) were 160 nM, 131 nM and 65.9 nM, respectively.

Regarding IASSMKGENV, the figures for the Kd with HLA-A*02:06 (setting [1]), with HLA-A*02:03 (setting [1]) and in the assay with HLA-A*02:02 (setting [1]) were 311 nM, 3240 nM and 751 nM, respectively.

Regarding IAVANCVRNL, the Kd with HLA-A*02:06 (setting [1]) turned out to be 9120 nM; with HLA-A*02:03 (setting [1]), 467 nM; with HLA-A*02:02 (setting [1]) it was 57.1 nM.

For the sequence ILGIIITVGM, the results for the Kd in the assay with HLA-A*02:06 (setting [1]), with HLA-A*02:03 (setting [1]) and with HLA-A*02:02 (setting [1]) were 4710 nM, 265 nM and 288 nM, respectively.

On to LLFLNDMGKV, for which, in the assay with HLA-A*02:03 (setting [3]), the Kd is 6.83 nM.

For LLFMILTVA, in the assay with HLA-A*02:03 (setting [2]), the Kd stood at 29.3 nM.

For the sequence LVGPTPVNI, the equilibrium dissociation constant (Kd) with HLA-A*02:03 (setting [5]) is 17.6 nM; with HLA-A*02:02 (setting [5]), 38 nM.

For the sequence MVAGGLLLAA, the Kd with HLA-A*02:06 (setting [3]) is 19.2 nM.

Take NQAAILMGL: the Kd with HLA-A*02:06 (setting [2]) worked out at 12.5 nM.

Consider NQATVLMGL, for which the Kd with HLA-A*02:06 (setting [6]) turned out to be 10.6 nM.

On to QLCDHRLMSA, for which the dissociation constant (Kd) with HLA-A*02:03 (setting [7]) was determined as 54.2 nM.

For RMGMGVTYL, in the assay with HLA-A*02:03 (setting [7]), the Kd is 115 nM.

SMFEPEREKV: the Kd with HLA-A*02:03 (setting [6]) amounted to 140 nM.

Consider VFAQVKQMYK, for which the Kd with HLA-A*31:01 (setting [4]) was 124 nM; in the assay with HLA-A*33:01 (setting [4]) it was 863 nM; with HLA-A*11:01 (setting [4]) it was 60.6 nM; in the assay with HLA-A*03:01 (setting [4]), 66.5 nM; with HLA-A*68:01 (setting [4]) it was 179 nM.

In the case of VFLILCFTIK, the Kd with HLA-A*31:01 (setting [4]) worked out at 613 nM; with HLA-A*33:01 (setting [4]), 4070 nM; with HLA-A*11:01 (setting [4]), 371 nM; with HLA-A*03:01 (setting [4]), 168 nM; with HLA-A*68:01 (setting [4]) it was 965 nM.

Consider VMKDGRVLV, for which the Kd with HLA-A*02:03 (setting [6]) was 50.7 nM.

Consider VSMMSMYGK, for which the Kd in the assay with HLA-A*31:01 (setting [1]) is 113 nM; with HLA-A*33:01 (setting [1]), ≥ 23500 nM; with HLA-A*11:01 (setting [1]), 1.18 nM; with HLA-A*03:01 (setting [1]) it was 15.2 nM; with HLA-A*68:01 (setting [1]), 5 nM.

VSVDAMIHK: the Kd with HLA-A*31:01 (setting [1]) is 7140 nM; with HLA-A*33:01 (setting [1]), ≥ 31900 nM; with HLA-A*11:01 (setting [1]), 2.46 nM; with HLA-A*03:01 (setting [1]), 1820 nM; in the assay with HLA-A*68:01 (setting [1]), 1450 nM.

As for VVENPTIQK, the Kd in the assay with HLA-A*31:01 (setting [4]) is 18700 nM; in the assay with HLA-A*33:01 (setting [4]) it was ≥ 64100 nM; in the assay with HLA-A*11:01 (setting [4]), 7.63 nM; with HLA-A*03:01 (setting [4]), 328 nM; with HLA-A*68:01 (setting [4]), 407 nM.

Take WLSYFVASFR: the Kd in the assay with HLA-A*31:01 (setting [4]) worked out at 0.461 nM; with HLA-A*33:01 (setting [4]) it was 13.4 nM; with HLA-A*11:01 (setting [4]), 14.5 nM; with HLA-A*03:01 (setting [4]) it was 56.6 nM; with HLA-A*68:01 (setting [4]), 0.494 nM.

As for YSSMTSDSK, the Kd with HLA-A*31:01 (setting [1]) was 4860 nM; in the assay with HLA-A*33:01 (setting [1]) it was ≥ 21400 nM; with HLA-A*11:01 (setting [1]), 10.5 nM; with HLA-A*03:01 (setting [1]), 1980 nM; in the assay with HLA-A*68:01 (setting [1]) it was 2.38 nM.

YVMNIERQDY: the Kd was 10200 nM with HLA-A*31:01 (setting [1]); ≥ 23300 nM in the assay with HLA-A*33:01 (setting [1]); 19000 nM with HLA-A*11:01 (setting [1]); ≥ 70100 nM in the assay with HLA-A*03:01 (setting [1]); 189 nM with HLA-A*68:01 (setting [1]).

YVNHTLTGQH: the Kd with HLA-A*31:01 (setting [8]) was ≥ 70000 nM; in the assay with HLA-A*33:01 (setting [8]) it was 29.5 nM; in the assay with HLA-A*11:01 (setting [8]), ≥ 69700 nM; in the assay with HLA-A*03:01 (setting [8]), ≥ 70000 nM; with HLA-A*68:01 (setting [8]) it was ≥ 70100 nM.
